How the values were obtained:
[1] = test system: >600,000 protein fragments spanning every wild-type (w.t.) human protein; assay: Genome-wide SafetyScan off-target screen; assay type: cell-based; conditions: overexpressed 90-aa protein fragments
Method: Primary CD8+ T cells were prepared as described above to express HN-P32-41. Triplicate wells transduced with lentiviral particles to express HN-32-41 combined in fresh complete T cell medium, and expanded until Day 5 in a G-Rex° 10 culture vessel (Wilson Wolf). On Day 5, cells were harvested, and cell concentrations were adjusted to 100 ×10^6 CD3^+ T cells/mL in EasySep buffer (StemCell Inc) and FcBlock solution with CD34 magnetic beads (Miltenyi) for 30 minutes at 4C, washed with EasySep buffer, and separated using a QuadroMACS® Separator and LS columns (Miltenyi). Isolated cells were washed and resuspended in fresh complete T cell medium and expanded in G-Rex®10 flasks (Wilson Wolf) until day 12, at which point cells were frozen in CryoStor® CS10 and stored at liquid nitrogen until use.
CD8+ T cells expressing HN-32-41 were thawed and restimulated (further expanded) by co-culturing T cells with irradiated (60 grays) allogeneic PBMCs in the presence of 0.1 ug/mL anti-CD3 (OKT3, eBioscience) and 50 U/mL recombinant IL-2 (Peprotech) in fresh T cell medium (RPMI 1640 supplemented with 10% heat-inactivated fetal bovine serum (FBS), 100 IU/mL penicillin, 100 μg/mL streptomycin, recombinant human IL-2 [50 U/mL, PeproTech]) in GRex® 100 flasks (Wilson Wolf). 50 U/mL recombinant IL-2 was added to expanding cells every other day until day 6. […]

[2] = test system: C*07:02 HEK reporter cells that express the indicated full length proteins; assay: Full-length ORF validation of putative off-targets in C*07:02 HEK reporter cells; assay type: cell-based, human; conditions: co-culture with C*07:02 HEK reporter cells
Method: Hit that validated as targets using 90-mers were advanced to testing against full protein open reading frames (ORFs). ORFs for TLE3 and SLC6A13 were cloned from the ORFeome Collaboration Library (Horizon). LAMB4 intron retention ORF was synthesized (GenScript). These clones were cloned into lentiviral over-expression vectors and delivered to C*07:02 HEK reporter cells by transduction followed by selection with puromycin. Cells were seeded a day before co-culture with T cells expressing HN-32-41 at an E:T ratio of ˜2:1. After 4 hours, the co-cultures were harvested by pipetting and fluorescence of the reporter was detected using a CytoFLEX™ S instrument (Beckman Coulter). The PIGO ORF clone was purchased from Genscript in pcDNA3.1 overexpression vector and delivered by transient transfection using FuGENE6 reagent (Promega). C*07:02 HEK reporter cells were seeded to adhere overnigth, then transiently transfected with the PIGO ORF. The media was refreshed then cells expant overnight. Cells were co-cultured with T cells expressing HN-32-41 at an E:T of ˜2:1. After 4 hours, the co-cultures were harvested by pipetting and fluorescence of the reporter was detected using a CytoFLEX™ S instrument (Beckman Coulter).

B1: TCR 32-41: T cell receptor recognizing MAGEA1 epitope presented by HLA-C*07:02; alpha TRAV27/TRAJ52, beta TRBV12-4/TRBJ1-4; wild type, HM and MGTM sequences listed (protein)
TCR alpha: QLLEQSPQFLSIQEGENLTVYCNSSSVFSSLQWYRQEPGEGPVLLVTVVTGGEVKKLKRLTFQFGDARKDSSLHITAAQPGDTGLYLCAGDESISYGKLTFGQGTILTVHPNIQNPEPAVYQLKDPRSQDSTLCLFTDFDSQINVPKTMESGTFITDKCVLDMKAMDSKSNGAIAWSNQTSFTCQDIFKETNATYPSSDVPCDATLTEKSFETDMNLNFQNLLVMVLRILLLKVAGFNLLMTLRLWSS
TCR beta: DAGVIQSPRHEVTEMGQEVTLRCKPISGHDYLFWYRQTMMRGLELLIYFNNNVPIDDSGMPEDRFSAKMPNASFSTLKIQPSEPRDSAVYFCASSFLGWNEKLFFGSGTQLSVLEDLRNVTPPKVSLFEPSKAEIANKQKATLVCLARGFFPDHVELSWWVNGKEVHSGVCTDPQAYKESNYSYCLSSRLRVSATFWHNPRNHFRCQVQFHGLSEEDKWPEGSPKPVTQNISAEAWGRADCGITSASYQQGVLSATILYEILLGKATLYAVLVSTLVVMAMVKRKNS
- putative off-targets identified in screen [1]: seven potential off-targets
- reactivity to putative off-targets as full-length proteins (activation of the reporter, % IFP) [2]: no activation of the reporter, measured as % IFP, except for LAMB4-IR
- reactivity to putative off-targets as full-length proteins (activation of the reporter, % IFP) ([2]; listed as TCR41): did not appreciably react with cells expressing putative off-targets
